The numbers were not newly measured in PMC10570509, which cites them from elsewhere.

For this data set, the target named is OSMRβ (Homo sapiens) (UniProt Q99650).
Sequence of UniProt Q99650 (Q99650 28-740): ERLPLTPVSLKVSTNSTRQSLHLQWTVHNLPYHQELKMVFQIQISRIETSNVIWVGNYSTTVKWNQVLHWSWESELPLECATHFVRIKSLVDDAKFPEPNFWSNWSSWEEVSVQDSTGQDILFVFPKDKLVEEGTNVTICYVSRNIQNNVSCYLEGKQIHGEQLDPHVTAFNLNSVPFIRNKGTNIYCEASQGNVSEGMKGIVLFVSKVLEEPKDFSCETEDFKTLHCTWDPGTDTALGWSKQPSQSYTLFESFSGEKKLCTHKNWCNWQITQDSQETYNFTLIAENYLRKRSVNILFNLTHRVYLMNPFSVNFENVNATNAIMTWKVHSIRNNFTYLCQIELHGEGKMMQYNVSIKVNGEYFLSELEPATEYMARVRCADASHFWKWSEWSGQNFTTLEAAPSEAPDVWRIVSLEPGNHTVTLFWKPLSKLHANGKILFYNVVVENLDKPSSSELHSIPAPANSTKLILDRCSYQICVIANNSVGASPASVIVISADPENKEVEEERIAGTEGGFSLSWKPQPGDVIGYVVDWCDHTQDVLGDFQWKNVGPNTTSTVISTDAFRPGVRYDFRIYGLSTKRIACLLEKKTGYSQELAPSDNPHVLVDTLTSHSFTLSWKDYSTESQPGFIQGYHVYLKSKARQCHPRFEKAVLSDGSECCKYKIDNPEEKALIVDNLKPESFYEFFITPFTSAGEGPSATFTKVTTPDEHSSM

One may read the Kd as the free concentration of one partner at which half of the binding sites on the other are occupied at equilibrium, for simple one-to-one binding. In the case of Oncostatin M (from UniProt P13725), the Kd was 0.15 nM.
